Our source for the stoichiometry N values is article PMC10235961.

The target in this assay is OleTPRN, CYP152 decarboxylase from Rothia nassimurium forming terminal (poly-unsaturated) olefins, wild type (Rothia nassimurium). The assay can be described thus: SEC.

For “OleTPRN, CYP152 decarboxylase from Rothia nassimurium forming terminal (poly-unsaturated) olefins, wild type (enzyme)”, the stoichiometry N is 2.
